For test [1], the target named is T1, Recombinant Mouse EphA2/Fc Chimera (mEphA2/Fc) (Mus musculus, UniProt Q03145).
T1 construct: purchased R&D systems, Inc
Nature of the test: Phage ELISA on solid-phase immobilized mEphA2/Fc. The format is binding. The settings on record: phage-displayed peptide, compared with wild-type TACI_d2. Here is the method:
(§1) As to 3 clones (α-EphA2 #1 to #3: corresponding to SEQ ID NOs: 3 to 5, respectively, in the Sequence Listing and to Nos. 2 to 4, respectively in FIG. 4) selected from the Escherichia coli colonies after the final round of panning with hEphA2 as a target molecule, an Escherichia coli suspension with OD600 nm=0.3 was prepared using 2×YT/Amp/1% Glu. The Escherichia coli cells of each clone were shake-cultured at 37° C. and allowed to grow until OD600 nm=0.5. A sufficient amount of helper phages M13K07 was added thereto to infect the cells at 37° C. for 30 minutes. After addition of 2×YT/Amp/Kan/0.25 mM IPTG, the helper phage-infected Escherichia coli was shake-cultured overnight at 22° C. 20% PEG/2.5 M NaCl solution was added to the recovered culture supernatant to precipitate phages. The precipitated phages were suspended in PBS. This phage stock solution and a series of two-fold dilutions with PBS were used in phage ELISA. An Escherichia coli TG-1 strain having a pCANTAB 5E vector containing the wild-type TACI_d2 gene was also subjected to the same operation as above to prepare phages.
Each of hEphA2, BSA, Recombinant Human BAFF/BLyS/TNFSF13B (R&D systems, Inc.; a polypeptide consisting of amino acids from Ala at position 134 to Leu at position 285 in human BAFF (UniProtKB/Swiss-Prot Accession # Q9Y275) and containing an N-terminally linked histidine tag, etc.; hereinafter referred to as “hBAFF”), and Recombinant Mouse EphA2/Fc Chimera, CF (R&D systems, Inc.; a polypeptide consisting of amino acids from Ala at position 22 to Ala at position 535 in mouse EphA2 (NCBI Accession No. #AAA82113) and containing a C-terminally linked Fc region (from Pro at position 100 to Lys at position 330) of human immunoglobulin G1 (hereinafter, referred to as “hIgG1”); hereinafter, referred to as “mEphA2/Fc”) was added to a Maxisorp plate and solid-phase immobilized overnight at 4° C. […] After washing of the Maxisorp plate with TBST again, the amount of a phage bound with the protein solid-phase immobilized on the plate was detected as absorbance at a wavelength of 405 nm using ELISA POD.
For orientation: In an ELISA, binding on a coated surface is turned into a signal by an enzyme label.

Test [2] deals with T2, human EphA2 expressed on cell surface (Homo sapiens, UniProt P29317).
T2 construct: expressed in transfected cells; host or cells: HEK293T
Nature of the test: Flow cytometry binding to human EphA2-expressing HEK293T cells. The format is cell-based. The settings on record: phage-displayed peptide, HEK293T cells transfected with human EphA2, human ErbB2-expressing cells as negative control. Here is the method:
Human embryonic kidney cells (HEK293T cells) were cultured at 37° C. in the presence of 5% CO2 using a Dulbecco's modified eagle's medium (hereinafter, referred to as “DMEM”; manufactured by GIBCO, Life Technologies Corp.) containing 10% fetal bovine serum (FBS) (hereinafter, this medium is referred to as “DMEM-10% FBS”). For use in transfection or flow cytometry, the cells were dissociated from the plate for culture using 0.05% trypsin-EDTA (GIBCO), and the cell suspension was then centrifuged to recover cells, which were then resuspended in DMEM-10% FBS and used.
The HEK293T cells were transfected with a pcDNA-DEST40 Gateway vector (manufactured by Invitrogen Corp.) having an insert of the human EphA2 gene or the human ErbB2 gene as a negative control using Lipofectamine 2000 (manufactured by Invitrogen Corp.) according to the instructions.
The transfected cells were recovered. The recovered cells were suspended in a FACS buffer (PBS containing 5% FBS) and applied to a nylon mesh. The solution was dispensed in an amount of 5×10^5 cells/well to 96 Well Cell Culture Cluster Round Bottom With Lid (manufactured by Costar, Corning Inc.) and centrifuged to remove a supernatant. The phage stock solution prepared in the paragraph 1) of Example 4 was added to the resulting cells at a concentration of 50 μL/well, and the mixture was left standing at 4° C. for 30 minutes. A FACS buffer was added thereto at a concentration of 150 μL/well, and the mixture was centrifuged to remove a supernatant. Again, a FACS buffer was added thereto at a concentration of 200 μL/well, and the mixture was centrifuged to remove a supernatant (hereinafter, cells were washed in the same way as this operation). An Anti-M13 antibody diluted 100-fold was added to the obtained cells at a concentration of 50 μL/well as a primary antibody, and the mixture was left standing at 4° C. for 30 minutes, followed by washing of the cells. Subsequently, FLUORESCEIN-CONJUGATED GOAT IGG FRACTION TO MOUSE IGG (manufactured by Cappel, MP Biomedicals, LLC) diluted 1000-fold was added thereto as a secondary antibody, and the mixture was left standing at 4° C. for 30 minutes, followed by washing of the cells. The obtained cells were suspended in 250 μL of a FACS buffer and subjected to Cytomics FC 500 Flow Cytometry System (manufactured by Beckman Coulter, Inc.). Fluorescently stained cells were detected.

For another test, the target named is T3, APRIL (Homo sapiens, UniProt O75888).
T3 sequence (O75888 105-250): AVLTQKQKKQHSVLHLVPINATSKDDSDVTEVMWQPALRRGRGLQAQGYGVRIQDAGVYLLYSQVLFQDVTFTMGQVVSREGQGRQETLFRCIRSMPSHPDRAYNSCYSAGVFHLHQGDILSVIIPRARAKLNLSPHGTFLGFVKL
The settings on record: compared with whole extracellular region (TACI_d1d2); cited from earlier work.

Test [3] has as its target T4, Recombinant Human BAFF/BLyS/TNFSF13B (hBAFF) (Homo sapiens, UniProt Q9Y275).
T4 construct: amino acids from Ala at position 134 to Leu at position 285 in human BAFF; histidine tag (N); purchased R&D systems, Inc
As to the kind of experiment: Phage ELISA on solid-phase immobilized hBAFF. The format is binding. The settings on record: phage-displayed peptide, absorbance at 405 nm. Here is the method: as §1, with “prepare phages. […]” for “prepare phages.”

The next test addresses BAFF (Homo sapiens, UniProt Q9Y275). The conditions noted are these: compared with whole extracellular region (TACI_d1d2); cited from earlier work.

T2 sequence (P29317 24-976): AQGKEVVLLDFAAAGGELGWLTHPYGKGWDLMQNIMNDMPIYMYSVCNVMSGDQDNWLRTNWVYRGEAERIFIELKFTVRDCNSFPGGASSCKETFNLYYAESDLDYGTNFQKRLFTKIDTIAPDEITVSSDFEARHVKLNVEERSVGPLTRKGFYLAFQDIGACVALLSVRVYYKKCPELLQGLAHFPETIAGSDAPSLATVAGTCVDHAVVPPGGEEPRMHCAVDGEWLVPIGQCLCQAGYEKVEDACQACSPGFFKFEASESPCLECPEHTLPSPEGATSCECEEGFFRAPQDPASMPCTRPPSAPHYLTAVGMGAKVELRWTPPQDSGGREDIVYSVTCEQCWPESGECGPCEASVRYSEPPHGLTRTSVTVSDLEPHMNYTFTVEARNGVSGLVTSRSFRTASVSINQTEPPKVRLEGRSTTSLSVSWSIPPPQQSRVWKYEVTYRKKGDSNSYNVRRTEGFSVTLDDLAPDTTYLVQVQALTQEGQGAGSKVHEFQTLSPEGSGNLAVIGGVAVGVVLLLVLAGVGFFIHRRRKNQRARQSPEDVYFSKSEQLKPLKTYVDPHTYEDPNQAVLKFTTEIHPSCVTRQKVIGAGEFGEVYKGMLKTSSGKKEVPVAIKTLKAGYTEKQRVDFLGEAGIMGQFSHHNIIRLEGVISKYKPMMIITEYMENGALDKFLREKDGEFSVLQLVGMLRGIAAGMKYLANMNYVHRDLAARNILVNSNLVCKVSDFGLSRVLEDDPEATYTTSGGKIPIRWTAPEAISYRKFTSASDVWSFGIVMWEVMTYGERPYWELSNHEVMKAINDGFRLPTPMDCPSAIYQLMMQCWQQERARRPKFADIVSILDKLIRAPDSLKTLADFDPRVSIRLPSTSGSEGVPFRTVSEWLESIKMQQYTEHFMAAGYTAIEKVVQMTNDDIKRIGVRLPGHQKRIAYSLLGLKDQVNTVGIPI
T1 sequence (Q03145 22-535, change not shown): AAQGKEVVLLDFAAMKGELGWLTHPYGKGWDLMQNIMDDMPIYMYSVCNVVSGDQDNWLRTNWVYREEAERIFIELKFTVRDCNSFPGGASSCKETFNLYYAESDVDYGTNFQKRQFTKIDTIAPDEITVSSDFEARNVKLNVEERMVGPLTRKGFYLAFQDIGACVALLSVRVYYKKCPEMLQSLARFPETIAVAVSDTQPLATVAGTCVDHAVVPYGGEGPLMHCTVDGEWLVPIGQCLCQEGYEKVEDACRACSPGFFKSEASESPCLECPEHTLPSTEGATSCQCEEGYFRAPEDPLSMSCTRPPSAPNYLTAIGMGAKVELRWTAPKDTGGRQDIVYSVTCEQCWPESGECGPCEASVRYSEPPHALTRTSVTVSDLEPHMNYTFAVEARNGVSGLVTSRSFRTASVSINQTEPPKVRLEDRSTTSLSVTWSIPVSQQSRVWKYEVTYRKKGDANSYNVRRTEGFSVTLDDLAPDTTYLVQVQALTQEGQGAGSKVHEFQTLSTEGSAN
T4 sequence (Q9Y275 134-285): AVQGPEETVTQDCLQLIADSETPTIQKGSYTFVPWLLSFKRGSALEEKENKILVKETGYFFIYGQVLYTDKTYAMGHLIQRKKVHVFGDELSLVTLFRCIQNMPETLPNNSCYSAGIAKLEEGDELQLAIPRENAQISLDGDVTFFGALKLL
BAFF, sequence (Q9Y275 134-285 limits assumed, species assumed): as the sequence (Q9Y275 134-285) above

In the case of “SLSCRKEQGKHYLLKEYDCDSCASECGYHPDYCAYFCEN (Amino acid sequence of human EphA2-binding peptide a-EphA2 #3) [α-EphA2 #3]”, in test [1], the “cross reactivity to mEphA2” value is given as “cross reactivity to mEphA2 at a level equivalent to wild-type TACI_d2”.
As to “SLSCRKEQGKMYLLKEWDCASCASACGNHPHYCAYFCEN (Amino acid sequence of human EphA2-binding peptide a-EphA2 #2) [α-EphA2 #2]”, the “cross reactivity to mEphA2” value in test [1] is reported as “cross reactivity to mEphA2 at a level equivalent to wild-type TACI_d2”. Besides, the results for the “binding to human EphA2 expressed on cell surface” value in test [2] and in test [2] (listed as α-EphA2 TACI_d2 #2) were “bound” and “specifically bound”, respectively.
With “SLSCRKEQGKQYLLREWDCDSCASECGSHPHYCAYFCEN (Amino acid sequence of human EphA2-binding peptide a-EphA2 #1) [α-EphA2 #1]”, the “cross reactivity to mEphA2” value in test [1] was “stronger cross reactivity”. The “binding to human EphA2 expressed on cell surface” value in test [2] is listed as “bound”; in test [2] (listed as α-EphA2 TACI_d2 #1), “specifically bound”.
Consider “wild-type TACI_d2: wild-type C-terminal cysteine-rich domain of TACI, binds APRIL and BAFF”, for which the “binding activity against APRIL” value with APRIL is on record as “equivalent to the binding activity of the whole extracellular region (TACI_d1d2)”. For the same substance, in test [3], the “binding to the endogenous ligand hBAFF” value is “bind to the endogenous ligand hBAFF”. Besides, the “binding activity against BAFF” value with BAFF was “equivalent to the binding activity of the whole extracellular region (TACI_d1d2)”.
